Experimental findings from PMC4050180 (FEBS Open Bio, 2014) are described below.

T1: 6xHis-TF-DGKα-C1 domains (porcine, UniProt P20192 196-362)
T1 sequence (looked up): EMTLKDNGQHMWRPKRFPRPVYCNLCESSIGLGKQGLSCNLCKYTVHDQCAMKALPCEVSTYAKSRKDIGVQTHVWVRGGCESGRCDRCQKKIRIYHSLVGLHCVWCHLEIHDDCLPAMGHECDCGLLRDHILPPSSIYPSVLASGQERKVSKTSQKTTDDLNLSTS

B1: EGFP-DGKα-C-terminal region (domain or fragment)
chain: not shown
B2: GST-DGKα-EF-hand motifs (domain or fragment)
chain: not shown

The target in the experiment “GST-DGKα-EF-hand motifs” is B2. Nature of the experiment: pull-down.
The next experiment addresses T1, 6xHis-TF-DGKα-C1 domains. The experiment in a line: pull-down.

Sequence of GST-DGKα-EF-hand motifs (P20192 103-200): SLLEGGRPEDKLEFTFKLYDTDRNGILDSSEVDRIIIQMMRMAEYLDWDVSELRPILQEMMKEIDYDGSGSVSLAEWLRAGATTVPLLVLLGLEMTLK

For B1, the “band intensity relative to the RVH domain” value with GST-DGKα-EF-hand motifs is around 3 fold.
As for B2, in the experiment with 6xHis-TF-DGKα-C1 domains, the binding result is reported as “binds”.
